The values that follow come from US20040009911A1, “Hepsin substrates and prodrugs” (IRM, LLC, priority 2002, published 2004).

Assay [1] concerns the target T1, recombinant hepsin (Homo sapiens, UniProt P05981). Kind of assay: Activation of pro-uPA by hepsin, monitored with uPA substrate GTAR-acc. It is filed as biochemical. Set-up: made in house. Conditions: 1 nM recombinant hepsin, 100 μM GTAR-acc; FIG. 10 (squares). As to the method: To test whether hepsin is capable of activating pro-uPA (and thereby potentially initiating this proteolytic cascade), uPA was screened through a coumarin-based substrate library and a substrate was designed to monitor uPA proteolytic activity. The substrate designed to monitor uPA activity is Acetyl-Gly-Thr-Ala-Arg-[7-amino-4-carbomoylcoumarin] (GTAR-acc). 2 μM of pro-uPA was incubated with 1 nM of recombinant hepsin and 100 μM of GTAR-acc.
Target sequence in this assay (P05981 whole entry): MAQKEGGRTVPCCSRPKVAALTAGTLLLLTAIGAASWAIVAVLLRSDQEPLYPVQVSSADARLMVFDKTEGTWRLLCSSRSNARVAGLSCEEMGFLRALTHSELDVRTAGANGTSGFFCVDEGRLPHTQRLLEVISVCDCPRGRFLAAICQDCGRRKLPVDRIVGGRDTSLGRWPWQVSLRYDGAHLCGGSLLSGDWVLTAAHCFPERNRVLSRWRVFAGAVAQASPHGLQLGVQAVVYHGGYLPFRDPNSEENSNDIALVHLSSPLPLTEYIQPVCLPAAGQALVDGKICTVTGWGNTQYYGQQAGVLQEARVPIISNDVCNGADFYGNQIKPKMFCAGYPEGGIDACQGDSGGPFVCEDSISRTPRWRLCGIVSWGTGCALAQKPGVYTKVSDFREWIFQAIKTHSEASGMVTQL

The target of assay [2] is T1, recombinant hepsin. Kind of assay: Cleavage of fluorogenic tetrapeptide substrates by recombinant hepsin expressed in insect cells. On the set-up: Hep136 (covering the prodomain and the catalytic domain); amino acids 46-417; honeybee melittin secretion signal (Mel) (N); made in house; host or cells: SP9 (Sf9) insect cells, baculovirus, pFastBac1. It counts as biochemical. Conditions: with and without a histidine tag. Here is the method:
SP9 cells were infected with recombinant virus at a MOI of 5-10 and the activity of hepsin in the supernatant was monitored by the hydrolysis of a fluorogenic peptide, KRLR-ACC. […] To determine the optimal expression time, activity was monitored for 72 hours after infection.
The activity of hepsin expressed and purified as described above was tested using the following substrates, which were synthesized based on the substrate specificity profile from the positional scanning libraries described above: Acetyl-Pro-Arg-Leu-Arg-ACC/ACMC and Acetyl-Lys-Arg-Leu-Arg-ACC/ACMC.
Target sequence in this assay (P05981 46-417): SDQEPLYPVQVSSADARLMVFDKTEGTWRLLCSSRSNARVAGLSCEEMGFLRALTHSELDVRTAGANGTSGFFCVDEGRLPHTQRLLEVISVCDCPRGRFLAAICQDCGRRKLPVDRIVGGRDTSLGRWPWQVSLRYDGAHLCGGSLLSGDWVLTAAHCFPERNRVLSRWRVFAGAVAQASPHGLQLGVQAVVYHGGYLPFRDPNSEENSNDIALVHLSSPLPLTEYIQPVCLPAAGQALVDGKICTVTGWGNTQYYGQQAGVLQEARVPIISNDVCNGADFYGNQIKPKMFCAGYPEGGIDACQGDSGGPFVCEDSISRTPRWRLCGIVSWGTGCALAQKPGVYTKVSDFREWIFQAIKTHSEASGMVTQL

ACC/ACMC = fluorogenic leaving group

“Acetyl-Gly-Thr-Ala-Arg-[7-amino-4-carbomoylcoumarin] (Ac-GTAR-{7‑amino‑4‑carbamoylcoumarin}) [GTAR-acc]”: the “cleavage of GTAR-acc by hepsin” value with recombinant hepsin [1] is given as “only marginally cleaves”. Take “Acetyl-Lys-Arg-Leu-Arg-ACC/ACMC (Ac-KRLR-{ACC/ACMC}; also: C-terminal ACC/ACMC fluorophore) [N-acetyl tetrapeptide hepsin substrate with C-terminal coumarin fluorophore (ACC or ACMC)]”: in the assay with recombinant hepsin [2], the “cleavage by recombinant hepsin” value is “efficiently cleaved”.

Turning to “Acetyl-Pro-Arg-Leu-Arg-ACC/ACMC (Ac-PRLR-{ACC/ACMC}; also: C-terminal ACC/ACMC fluorophore) [N-acetyl tetrapeptide hepsin substrate with C-terminal coumarin fluorophore (ACC or ACMC)]”, the “cleavage by recombinant hepsin” value in the assay with recombinant hepsin [2] is “efficiently cleaved”.
